Test results reported in patent US20220135694A1, “NOVEL CD40-BINDING ANTIBODIES” (LAVA THERAPEUTICS B.V., priority 2019, published 2022).

Test system: MM.1s cells
Assay type: in vivo, mouse
Protocol: FIG. 18: The bispecific […] VHH prolongs survival in vivo. Immunodeficient NSG mice were irradiated on day −1 and grafted (i.v.) with 2.5*10^6 MM.1s cells on day 0. Mice received PBS or human Vγ9Vδ2-T cells (1*10^7 cells; both i.v.) on days 7, 14 and 21 followed by PBS or V19S76K-5C8 (VHH; 5 mg/kg; both i.p.) twice weekly starting on day 9. (A) Schematic overview of treatment schedule. (B) Kaplan-Meier analyses of mouse survival (control: n=6; V19S76K-5C8 (VHH): n=6, Vγ9Vδ2-T cells: n=8, Vγ9Vδ2-T cells+V19S76K-5C8 (VHH): n=8). CD40 expression on MM.1s cells (human CD45^+CD38^+ cells) in the (C) bone marrow (BM) and (D) plasmacytomas at the time of sacrifice. (E) Body weight after 7 weeks of treatment relative to individual body weight at time of tumor injection. **P<0.01, ***P<0.001. Data are presented as mean and SD. (B: Mantel-Cox logrank test followed by Holm-Sidak's post hoc test, C: one-way ANOVA followed by Dunnett's post hoc test compared to control mice, D: unpaired t-test).
To study the effects of the bispecific VHH on tumor growth in vivo, immunodeficient NSG mice were injected with cells of MM.1s, a human multiple myeloma cell line. The tumor cells were allowed to grow out and engraft for 1 week before mice received the first of three weekly i.v. injections with either human Vγ9Vδ2-T cells or PBS, followed by twice weekly i.p. injections with V19S76K-5C8 or PBS (FIG. 18A).

B1: V19S76K-5C8: tag-less bispecific anti-CD40-anti-Vγ9Vδ2-TCR VHH, SEQ ID NO:23 (protein)
VHH: QVQLQESGGGLVQAGGSLRLSCAASGRTFGRSAMGWFRQAPGKEREFVAAIGTRGGSTKYADSVKGRFTISTDNAKNTVYLQMDSLKPEDTAVYRCAVRGPGYPSAAIFQDEYHYWGQGTQVTVSSGGGGSEVQLVESGGGLVQAGGSLRLSCAASGRPFSNYAMGWFRQAPGKEREFVAAISWSGGSTSYADSVKGRFTISRDNAKNTVYLQMNSPKPEDTAIYYCAAQFSGADYGFGRLGIRGYEYDYWGQGTQVTVSS
modifications: antibody sequence
Q: With B1 as the molecule, how does the median overall survival (V19S76K-5C8 5 mg/kg i.p. twice weekly plus human Vγ9Vδ2-T cells i.v., control group 47 days, FIG. 18B) read?
A: 80 days

Q: And the overall survival (V19S76K-5C8 alone, without Vγ9Vδ2-T cells, FIG. 18B)?
A: Neither V19S76K-5C8 alone or the Vγ9Vδ2-T cells alone significantly improved overall survival

Q: And the “overall survival versus control group” value (V19S76K-5C8 plus Vγ9Vδ2-T cells, FIG. 18B)?
A: lived significantly longer

Q: What about the “CD40 expression on malignant cells in the bone marrow versus control mice” value (V19S76K-5C8 plus Vγ9Vδ2-T cells, at time of sacrifice, FIG. 18C) of the same molecule?
A: significantly lower

Q: What about the “CD40 expression on malignant plasma cells in plasmacytomas” value (V19S76K-5C8 plus Vγ9Vδ2-T cells, at time of sacrifice, FIG. 18D) of the same molecule?
A: A similar trend was observed
